B1: SNAP91 (parent)
chain: FAQPMMRPPFGAAAVPGTQLSPSP

Variants of: B1
Assay: protein stability index of a GFP-peptide fusion (GPS, HEK-293T) (PSI 1-6); higher = more stable
Conditions: c terminus: a fixed tail appended
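Note: lentivirally expressed fusions sorted by FACS into six bins by GFP to DsRed ratio, PSI derived from sequencing read proportions per bin multiplied by bin number.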

Variant	protein stability index
FAQPMMRPWFGAAAVPGTQLSPSP [P9W]	1.91
FAQPMMRPTFGAAAVPGTQLSPSP [P9T]	3.59
FAQPMMRPYFGAAAVPGTQLSPSP [P9Y]	2.34
FAQPMMRPVFGAAAVPGTQLSPSP [P9V]	3.26
FAQPMMRPPFWAAAVPGTQLSPSP [G11W]	1.88
FAQPMMRPPFSAAAVPGTQLSPSP [G11S]	4.04
FAQPMMRPPFHAAAVPGTQLSPSP [G11H]	2.91
FAQPMMRPPFKAAAVPGTQLSPSP [G11K]	3.55
FAQPMMRPPFFAAAVPGTQLSPSP [G11F]	2.86
FAQPMMRPPFRAAAVPGTQLSPSP [G11R]	4.01
FAQPMMRPPFEAAAVPGTQLSPSP [G11E]	3.43
FAQPMMRPPFLAAAVPGTQLSPSP [G11L]	3.04
FAQPMMRPPFNAAAVPGTQLSPSP [G11N]	3.67
FAQPMMRPPFQAAAVPGTQLSPSP [G11Q]	4.35
FAQPMMRPPFAAAAVPGTQLSPSP [G11A]	3.74
FAQPMMRPPFDAAAVPGTQLSPSP [G11D]	3.7
FAQPMMRPPFYAAAVPGTQLSPSP [G11Y]	2.91
FAQPMMRPPFVAAAVPGTQLSPSP [G11V]	3.35
FAQPMMRPPFMAAAVPGTQLSPSP [G11M]	3.29
FAQPMMRPPFIAAAVPGTQLSPSP [G11I]	2.73
FAQPMMRPPFPAAAVPGTQLSPSP [G11P]	3.98
FAQPMMRPPFCAAAVPGTQLSPSP [G11C]	2.96
FAQPMMRPPFTAAAVPGTQLSPSP [G11T]	3.44
FAQPMMRPPFGAADVPGTQLSPSP [A14D]	2.79

Variant	protein stability index
FAQPMMRPPFGAAGVPGTQLSPSP [A14G]	2.8
FAQPMMRPPFGAAMVPGTQLSPSP [A14M]	3.03
FAQPMMRPPFGAAPVPGTQLSPSP [A14P]	3.08
FAQPMMRPPFGAACVPGTQLSPSP [A14C]	2.81
FAQPMMRPPFGAAKVPGTQLSPSP [A14K]	3.21
FAQPMMRPPFGAAIVPGTQLSPSP [A14I]	2.82
FAQPMMRPPFGAARVPGTQLSPSP [A14R]	3.31
FAQPMMRPPFGAAHVPGTQLSPSP [A14H]	2.99
FAQPMMRPPFGAAQVPGTQLSPSP [A14Q]	3.25
FAQPMMRPPFGAAEVPGTQLSPSP [A14E]	3.01
FAQPMMRPPFGAAFVPGTQLSPSP [A14F]	2.65
FAQPMMRPPFGAANVPGTQLSPSP [A14N]	3.17
FAQPMMRPPFGAALVPGTQLSPSP [A14L]	2.78
FAQPMMRPPFGATAVPGTQLSPSP [A13T]	3.36
FAQPMMRPPFGACAVPGTQLSPSP [A13C]	2.39
FAQPMMRPPFGAIAVPGTQLSPSP [A13I]	2.54
FAQPMMRPPFGAPAVPGTQLSPSP [A13P]	3.76
FAQPMMRPPFGALAVPGTQLSPSP [A13L]	2.63
FAQPMMRPPFGAMAVPGTQLSPSP [A13M]	2.79
FAQPMMRPPFGADAVPGTQLSPSP [A13D]	3.38
FAQPMMRPPFGAVAVPGTQLSPSP [A13V]	2.73
FAQPMMRPPFGAFAVPGTQLSPSP [A13F]	3.13
FAQPMMRPPFGAYAVPGTQLSPSP [A13Y]	2.75
FAQPMMRPPFGAKAVPGTQLSPSP [A13K]	3.13

Variant	protein stability index
FAQPMMRPPFGANAVPGTQLSPSP [A13N]	3.46
FAQPMMRPPFGASAVPGTQLSPSP [A13S]	3.25
FAQPMMRPPFGAEAVPGTQLSPSP [A13E]	3.24
FAQPMMRPPFGARAVPGTQLSPSP [A13R]	3.65
FAQPMMRPPFGAHAVPGTQLSPSP [A13H]	3.13
FAQPMMRPPFGAGAVPGTQLSPSP [A13G]	3.44
FAQPMMRPPFGAQAVPGTQLSPSP [A13Q]	3.32
FAQPMMRPPFGAWAVPGTQLSPSP [A13W]	1.62
FAQPMMRPPDGAAAVPGTQLSPSP [F10D]	4.52
FAQPMMRPPEGAAAVPGTQLSPSP [F10E]	3.99
FAQPMMRPPVGAAAVPGTQLSPSP [F10V]	4.7
FAQPMMRPPIGAAAVPGTQLSPSP [F10I]	3.99
FAQPMMRPPLGAAAVPGTQLSPSP [F10L]	4.12
FAQPMMRPPRGAAAVPGTQLSPSP [F10R]	3.86
FAQPMMRPPWGAAAVPGTQLSPSP [F10W]	2.1
FAQPMMRPPKGAAAVPGTQLSPSP [F10K]	3.83
FAQPMMRPPNGAAAVPGTQLSPSP [F10N]	4.14
FAQPMMRPPQGAAAVPGTQLSPSP [F10Q]	4.33
FAQPMMRPPMGAAAVPGTQLSPSP [F10M]	4.12
FAQPMMRPPYGAAAVPGTQLSPSP [F10Y]	2.83
FAQPMMRPPGGAAAVPGTQLSPSP [F10G]	4.2
FAQPMMRPPHGAAAVPGTQLSPSP [F10H]	3.58
FAQPMMRPPPGAAAVPGTQLSPSP [F10P]	4.31
FAQPMMRPPAGAAAVPGTQLSPSP [F10A]	3.98

Variant	protein stability index
FAQPMMRPPSGAAAVPGTQLSPSP [F10S]	3.81
FAQPMMRPPTGAAAVPGTQLSPSP [F10T]	4.14
FAQPMMRPPCGAAAVPGTQLSPSP [F10C]	2.95
FAQPMMRPPFGQAAVPGTQLSPSP [A12Q]	3.62
FAQPMMRPPFGCAAVPGTQLSPSP [A12C]	2.46
FAQPMMRPPFGKAAVPGTQLSPSP [A12K]	3.16
FAQPMMRPPFGEAAVPGTQLSPSP [A12E]	3.39
FAQPMMRPPFGRAAVPGTQLSPSP [A12R]	3.33
FAQPMMRPPFGWAAVPGTQLSPSP [A12W]	2.77
FAQPMMRPPFGSAAVPGTQLSPSP [A12S]	2.91
FAQPMMRPPFGMAAVPGTQLSPSP [A12M]	3.03
FAQPMMRPPFGLAAVPGTQLSPSP [A12L]	2.42
FAQPMMRPPFGDAAVPGTQLSPSP [A12D]	3.82
FAQPMMRPPFGHAAVPGTQLSPSP [A12H]	2.96
FAQPMMRPPFGVAAVPGTQLSPSP [A12V]	2.55
FAQPMMRPPFGIAAVPGTQLSPSP [A12I]	2.58
FAQPMMRPPFGTAAVPGTQLSPSP [A12T]	2.91
FAQPMMRPPFGPAAVPGTQLSPSP [A12P]	2.7
FAQPMMRPPFGYAAVPGTQLSPSP [A12Y]	2.53
FAQPMMRPPFGGAAVPGTQLSPSP [A12G]	3.5
FAQPMMRPPFGNAAVPGTQLSPSP [A12N]	3.54
FAQPMMRPPFGFAAVPGTQLSPSP [A12F]	2.83

Source: the supplement of paper PMC10567573
